Test results published in patent publication US20240076398A1 (VISTERRA, published 2024).
No end group written: not given here.

T1: human C5aR1 (complement component 5a receptor 1) (human, UniProt P21730 1-350, sulfated tyrosines at positions 11 and 14)
T1 construct: on Expi293 cells, C5aR1-U937 cells or human neutrophils in flow cytometry; also called CD88; C5a anaphylatoxin chemotactic receptor 1
T1 chain: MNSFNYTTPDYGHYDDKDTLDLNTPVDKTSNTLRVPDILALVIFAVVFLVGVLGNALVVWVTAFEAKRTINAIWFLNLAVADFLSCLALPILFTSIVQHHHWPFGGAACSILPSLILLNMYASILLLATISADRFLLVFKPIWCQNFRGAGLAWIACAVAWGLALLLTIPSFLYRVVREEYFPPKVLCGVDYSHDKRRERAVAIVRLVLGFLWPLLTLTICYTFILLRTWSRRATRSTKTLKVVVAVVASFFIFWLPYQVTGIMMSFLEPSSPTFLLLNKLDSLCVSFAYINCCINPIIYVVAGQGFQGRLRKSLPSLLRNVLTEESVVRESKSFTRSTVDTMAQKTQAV

T2: biotinylated cyclic ECL2 peptide of C5aR1 (human, also: biotinylated, position not given here, cyclic, way of cyclisation not given here)
T2 peptide: RVVREEYFPPKVLC


Assays:
[1] = molecular target: T1, human C5aR1 (complement component 5a …); test: flow cytometry on human neutrophils, titration 10^-7.5 to 10^-12 M
Description: Exemplary anti-C5aR1 antibodies generated as described in Example 1 were tested for binding to human neutrophils. Briefly, cryopreserved human neutrophils were obtained from Asarte Biologics.

[2] = molecular target: T2, biotinylated cyclic ECL2 peptide of …; test: BLI, peptide on streptavidin sensor
Excerpt: The epitope mapping was undertaken, using biolayer interferometry, on a series of exemplary anti-C5aR1 antibodies generated as described in Example 1. Briefly, for each antibody, biotinylated peptides representing ECL2, the N-terminus with tyrosine sulfation, and the N-terminus without tyrosine sulfation, were immobilized in a streptavidin biosensor. Subsequently, the biosensor was exposed to […] of antibody to detect antibody binding to the immobilized peptide. The results of the epitope mapping study are shown in Table 4 (“+” indicates binding to the listed peptide; “−” indicates lack of binding to the listed peptide).

Binder | binding result [1] | binding result [2]
antibody 332 (antibody, V domains shown) VH: QVQLQQSDAELVKPGASVKISCKASGYTFTDHSIHWVKQRPEQGLEWIGYISPGNGDIKYDEKFKGKATLTADTSSSTAYMQLNSLTSEDSAVYFCKGPLLLRWRYFYPVDYWGQGTTVTVSS VL: DIVMTQSQKFMSSAVGDRVTITCKASQNVGAAVAWYQQKPGQSPKLLLYSASIRYTGVPDRFTGSGSGTDFTLTISNIQSEDLAHFFCQQYNSFPLTFGGGTKLEIK | binds | no binding (tested: 10 gg/mL (so in the source))
antibody 335 (antibody, V domains shown) VH: QVQLQQSDAALVKPGASVKISCKASGYTFTDHAIHWVKQRPEQGLEWIGYISPGNGDIKYNEKFKGKATLTADKSSSTAYMQLNSLTSEDSAVYFCKGPLLVRWRYYITMDYWGQGTTVTVSS VL: DIVMTQSQKFMSTTVGDRVSITCKASQNVGAAVVWYQQKPGQSPKLLIYSASYRYTGVPDRFTGSGSGTDFTLTISNMQSEDVADYFCQQYNSFPLTFGGGTKLEIK | binds | no binding (tested: 10 gg/mL (so in the source))
